{"source": "paper PMC7943601", "target": "PrgJ (S. enterica sv. Typhimurium (endogenous in SB905)) (UniProt P41785)", "assay": "cryo-EM structure"}
{"substance": "PrgJ (from UniProt P41785 1-101) (natural protein)", "values": [{"measurement": "stoichiometry N", "value": 6}]}
